Bridge positions count the residues as written; N and C are the ends. Ends that are not written are not given here.
Experiments:
RT4 tumor cells = test: Phage attachment to subconfluent cell monolayer, with peptide competition; assay type: cell-based, human; details: increasing amounts of peptide
Protocol: A subconfluent monolayer of RT4 tumor cells was incubated with 1×10^8 T.U. of VHALES (SEQ ID NO:25) phage per well in presence of increasing amounts of VHALES (SEQ ID NO:25) and control peptide. […] Bound phage were detected after intensive washing by infection with log phase K91 bacteria and plating of serial dilutions.
All cells were grown to subconfluency in 48 well plates and free binding sites were blocked with 800 μl 30% FCS/DMEM (blocking medium) for 1 hour at 37° C. The blocking solution was then replaced by 200 μl 10% FCS/DMEM (washing medium) containing 1×10^8 cfu of each phage per well. After incubation for 2 hours at 4° C. to prevent unspecific endocytosis, unbound phage were removed by washing 7 times with 500 μl washing medium. For competition experiments increasing concentrations of the corresponding peptide or a control peptide (CARAC, SEQ ID NO:5) were added during the incubation. Bound phage were determined by infection with 500 μl log phase K91 culture and plating of serial dilutions.

human VEGFR-1 = biological target: T1, human VEGFR-1 (Homo sapiens, UniProt P17948); test: Phage binding to immobilized purified receptor, with competition; details: for blocking of clone 19 phage binding to VEGF-R1 by competitor: competitor pre-incubated with immobilized receptor, PDGF-BB up to 200 ng/ml
T1 construct: purchased Oncogene Research Products, Boston, Mass
Protocol: (§1) Human VEGFR-1, human VEGFR-2, rat NRP-1, and rat NRP-2 (1 μg in 50 μl of PBS) were immobilized on microtiter well plates overnight at 4° C. The wells were washed twice with PBS, blocked with PBS containing 3% BSA for 2 h at room temperature, and then incubated with 10^9 TU of either […] (SEQ ID NO:6) phage, […] (SEQ ID NO:11) phage, or fd-tet phage in 50 μl of PBS/1.5% BSA. After 1 hr at room temperature, wells were washed nine times with PBS and phage were recovered by bacterial infection. Serial dilutions were plated onto Luria-Bertani (LB) medium supplemented with tetracycline. VEGF165, PDGF-BB, or synthetic peptides were used at the indicated concentrations and pre-incubated with the immobilized proteins to evaluate competitive inhibition of phage binding. ELISA with either polyclonal anti-VEGFR-1 serum or anti-human IgG (VEGFR-2, NRP-1, and NRP-2) confirmed the presence and concentration of the immobilized receptors on the microtiter plates. […] Following three washes, VEGF165 binding was evaluated by ELISA by using anti-VEGF specific antibodies (data not shown).

rat NRP-1 = biological target: T2, rat NRP-1 (Rattus norvegicus, UniProt Q9QWJ9); test: as above; details: competitor pre-incubated with immobilized receptor; PDGF-BB up to 200 ng/ml
T2 construct: purchased R&D Systems Minneapolis, Minn
Protocol: as §1

KS1767 cells = test: BRASIL binding of phage to KS1767 cells, with synthetic peptide competition; assay type: cell-based; details: for effect of soluble peptide on RGD-4C phage binding to KS1767 cells: competition experiment
Protocol: FIG. 2A. BRASIL method optimization. A single-cell suspension of Kaposi sarcoma-derived cells (KS1767) was incubated with increasing titers of a phage displaying an alpha v integrin-binding motif (RGD-4C phage) or a control phage with no peptide insert (Fd phage). KS1767 cells were chosen because they express high levels of alpha v integrins. Cells and phage were incubated for 4 hours on ice (to prevent phage internalization) and centrifuged for 10 minutes at 10,000 g. The phage bound to the KS1767 cells were recovered by infection of a host E. coli, and plated in LB/tet agar plates at 37° C. overnight. Finally, the phage transducing units were counted. Extremely low backgrounds were observed. Under non-saturated conditions, a conservative mean estimate of the enrichment of RGD-4C phage in relation to Fd phage is 500-1000. This experiment was repeated three times with similar results. Mean and standard deviation are shown.
Cells were harvested with phosphate-buffered saline (PBS) and 5 mM EDTA, washed with MEM, and re-suspended in MEM containing 1% BSA at 10^6 cells/ml and incubated with phage in 1.5 ml Eppendorf tubes. After 4 h, 100 μl of the cell-phage suspension was gently transferred to the top of a non-miscible organic lower phase (200 μl in a 400 μl-Eppendorf tube) and centrifuged at 10,000 g for 10 minutes. The preferred organic phase combination consisted of a mixture of dibutyl phthalate:cyclohexane (9:1 [v/v]; ρ=1.03 g/ml). BRASIL has been attempted with other phthalate admixtures with the appropriate density (for example, dibutyl phthalate:diisooctyl phthalate; 4:6 [v/v]) with similar results. The tube was snap frozen in liquid nitrogen, the bottom of the tube sliced off, and the cell-phage pellet transferred to a new tube. Bound phage were rescued by infection with 200 μl of E. coli K91kan host bacteria in log phase. To evaluate binding specificity, phage and cells were incubated with the cognate or control synthetic peptides for competition assays.
KS1767 cells were detached with cold EDTA and re-suspended in MEM containing 1% BSA. […] The cell suspension was incubated with RGD-4C phage or a control phage with no peptide insert (fd-tet phage). Increasing amounts of either phage were added to the cells in suspension and the cell-phage admixture was incubated for 4 hr on ice. BRASIL was performed on ice to minimize post-binding events such as ligand-receptor internalization by the target cells. The cells were separated by centrifugation through the organic phase as described above. Bound phage were recovered and phage TU were counted. To compare BRASIL to conventional cell panning methods that require an additional washing step, 200 μl of the cell suspension were incubated with phage for 4 hr on ice. […]

porcine bladder mucosa = test: Dot blot chamber assay after removal of the GAG-layer; assay type: cell-based; details: 0.1M HCl for 2 min; relative to untreated mucosa set to 1
Protocol: FIG. 10. Influence of the GAG-layer on phage binding. In the dot blot chamber assay portions of a porcine bladder mucosa were treated with 0.1M HCl for 2 min prior to remove the GAG-layer. Binding to treated surface is given relative to untreated surface, that was set as 1. Bound phage were detected after intensive washing by infection with log phase K91 bacteria and plating of serial dilutions.
Removal of the glucosaminoglycan- (GAG-) layer on intact mucosa samples was performed as a dot blot chamber assay. Half of the wells were incubated with 200 μl 0.1M HCl per well for 2 min, intensely rinsed with blocking solution and both parts blocked as before. Results are given relative to fd-tet phage to untreated mucosa, that was set to 1.
Using the same assay the influence of the glucosaminoglycan (GAG) layer on binding of several phage to intact mucosa was examined. The GAG-layer was removed as described above. Half of the mucosa of human ureter and porcine bladder specimens were treated inside the dot blot chamber with […] for 2 min, extensively washed and the binding assay performed as before.

[1] = biological target: alpha v integrins on KS1767 cells (Kaposi sarcoma-derived cell line) (UniProt P06756); test: BRASIL, phage on KS1767 cells in suspension, transducing units recovered
recombinant rat NRP-1/Fc = biological target: T3, recombinant rat NRP-1/Fc (rat; human, UniProt Q9QWJ9 22-854, limits assumed); test: competition of clone-19 phage binding to immobilized NRP-1 (not shown)
T3 construct: Bought receptor/Fc chimera; also called rat Neuropilin-1; neuropilin-1; not shown: Fc region of human IgG1
T3 sequence (looked up): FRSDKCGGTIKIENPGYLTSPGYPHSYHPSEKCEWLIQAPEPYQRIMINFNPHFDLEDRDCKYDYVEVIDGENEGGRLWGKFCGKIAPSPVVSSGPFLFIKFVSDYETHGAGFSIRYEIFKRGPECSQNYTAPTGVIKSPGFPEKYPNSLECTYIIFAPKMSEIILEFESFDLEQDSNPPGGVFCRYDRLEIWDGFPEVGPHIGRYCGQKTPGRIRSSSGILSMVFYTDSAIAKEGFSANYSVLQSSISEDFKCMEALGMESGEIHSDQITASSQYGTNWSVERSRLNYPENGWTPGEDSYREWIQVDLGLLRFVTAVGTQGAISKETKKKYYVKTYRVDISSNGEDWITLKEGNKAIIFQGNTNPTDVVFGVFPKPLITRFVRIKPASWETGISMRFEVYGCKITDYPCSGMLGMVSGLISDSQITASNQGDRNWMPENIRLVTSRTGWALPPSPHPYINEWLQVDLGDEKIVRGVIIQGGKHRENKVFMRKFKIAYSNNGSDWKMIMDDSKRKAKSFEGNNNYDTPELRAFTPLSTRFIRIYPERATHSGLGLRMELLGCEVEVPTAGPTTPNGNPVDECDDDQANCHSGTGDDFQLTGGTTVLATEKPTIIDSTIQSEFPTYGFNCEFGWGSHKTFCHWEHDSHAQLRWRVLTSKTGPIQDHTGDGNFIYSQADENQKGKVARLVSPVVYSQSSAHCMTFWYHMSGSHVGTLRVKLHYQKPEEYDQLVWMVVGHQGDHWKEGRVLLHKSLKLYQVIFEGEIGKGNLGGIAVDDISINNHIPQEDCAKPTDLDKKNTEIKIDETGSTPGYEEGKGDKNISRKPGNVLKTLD
Protocol: (§2) Human VEGFR-1, human VEGFR-2, rat NRP-1, and rat NRP-2 (1 μg in 50 μl of PBS) were immobilized on microtiter well plates overnight at 4° C. The wells were washed twice with PBS, blocked with PBS containing 3% BSA for 2 h at room temperature, and then incubated with 10⁹ TU of either […] […] (SEQ ID NO:11) phage, or fd-tet phage in 50 μl of PBS/1.5% BSA. After 1 hr at room temperature, wells were washed nine times with PBS and phage were recovered by bacterial infection. Serial dilutions were plated onto Luria-Bertani (LB) medium supplemented with tetracycline. VEGF₁₆₅, PDGF-BB, or synthetic peptides were used at the indicated concentrations and pre-incubated with the immobilized proteins to evaluate competitive inhibition of phage binding.

[2] = biological target: T4, recombinant human VEGFR-1 (human, UniProt P17948 27-758, limits assumed); test: competition of clone-19 phage binding to immobilized receptors; reference is NRP-1 (not shown)
T4 construct: Bought; immobilized on microtiter wells (1 ug in 50 ul PBS); also called Flt1
Protocol: as §2

[3] = biological target: alpha v integrins on KS1767 cells (Kaposi sarcoma-derived cell line) (UniProt P06756); test: BRASIL on KS1767 cells, competition with peptide in solution

Chain of alpha v integrins on KS1767 cells (Kaposi sarcoma-derived cell line) (P06756 31-1048): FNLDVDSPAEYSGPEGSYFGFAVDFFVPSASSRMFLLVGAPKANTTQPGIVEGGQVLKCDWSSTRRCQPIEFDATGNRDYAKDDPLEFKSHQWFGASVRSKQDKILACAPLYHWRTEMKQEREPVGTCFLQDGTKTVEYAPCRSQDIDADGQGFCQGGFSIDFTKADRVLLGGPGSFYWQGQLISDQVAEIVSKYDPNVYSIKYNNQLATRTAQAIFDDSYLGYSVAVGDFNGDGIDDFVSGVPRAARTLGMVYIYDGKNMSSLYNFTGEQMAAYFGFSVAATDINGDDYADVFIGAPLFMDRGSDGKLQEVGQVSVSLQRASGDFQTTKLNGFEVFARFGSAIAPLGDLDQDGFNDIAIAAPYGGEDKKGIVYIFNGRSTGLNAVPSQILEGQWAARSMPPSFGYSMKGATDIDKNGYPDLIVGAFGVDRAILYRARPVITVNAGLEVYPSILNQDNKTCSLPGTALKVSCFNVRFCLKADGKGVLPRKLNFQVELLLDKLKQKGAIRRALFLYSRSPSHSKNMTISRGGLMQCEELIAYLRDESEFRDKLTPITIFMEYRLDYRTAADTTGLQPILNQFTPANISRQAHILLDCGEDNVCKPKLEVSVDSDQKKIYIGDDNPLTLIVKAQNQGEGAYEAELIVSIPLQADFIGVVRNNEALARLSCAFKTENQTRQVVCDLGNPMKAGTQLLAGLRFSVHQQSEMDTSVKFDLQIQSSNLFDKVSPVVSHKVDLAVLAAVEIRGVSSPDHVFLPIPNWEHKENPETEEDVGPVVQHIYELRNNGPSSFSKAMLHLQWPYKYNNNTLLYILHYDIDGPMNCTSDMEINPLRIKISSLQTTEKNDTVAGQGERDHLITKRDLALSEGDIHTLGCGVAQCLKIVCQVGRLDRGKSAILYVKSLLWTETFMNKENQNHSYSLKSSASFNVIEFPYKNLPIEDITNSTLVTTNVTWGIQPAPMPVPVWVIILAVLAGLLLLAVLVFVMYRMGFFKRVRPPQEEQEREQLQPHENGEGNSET
T1 sequence (P17948 27-1338): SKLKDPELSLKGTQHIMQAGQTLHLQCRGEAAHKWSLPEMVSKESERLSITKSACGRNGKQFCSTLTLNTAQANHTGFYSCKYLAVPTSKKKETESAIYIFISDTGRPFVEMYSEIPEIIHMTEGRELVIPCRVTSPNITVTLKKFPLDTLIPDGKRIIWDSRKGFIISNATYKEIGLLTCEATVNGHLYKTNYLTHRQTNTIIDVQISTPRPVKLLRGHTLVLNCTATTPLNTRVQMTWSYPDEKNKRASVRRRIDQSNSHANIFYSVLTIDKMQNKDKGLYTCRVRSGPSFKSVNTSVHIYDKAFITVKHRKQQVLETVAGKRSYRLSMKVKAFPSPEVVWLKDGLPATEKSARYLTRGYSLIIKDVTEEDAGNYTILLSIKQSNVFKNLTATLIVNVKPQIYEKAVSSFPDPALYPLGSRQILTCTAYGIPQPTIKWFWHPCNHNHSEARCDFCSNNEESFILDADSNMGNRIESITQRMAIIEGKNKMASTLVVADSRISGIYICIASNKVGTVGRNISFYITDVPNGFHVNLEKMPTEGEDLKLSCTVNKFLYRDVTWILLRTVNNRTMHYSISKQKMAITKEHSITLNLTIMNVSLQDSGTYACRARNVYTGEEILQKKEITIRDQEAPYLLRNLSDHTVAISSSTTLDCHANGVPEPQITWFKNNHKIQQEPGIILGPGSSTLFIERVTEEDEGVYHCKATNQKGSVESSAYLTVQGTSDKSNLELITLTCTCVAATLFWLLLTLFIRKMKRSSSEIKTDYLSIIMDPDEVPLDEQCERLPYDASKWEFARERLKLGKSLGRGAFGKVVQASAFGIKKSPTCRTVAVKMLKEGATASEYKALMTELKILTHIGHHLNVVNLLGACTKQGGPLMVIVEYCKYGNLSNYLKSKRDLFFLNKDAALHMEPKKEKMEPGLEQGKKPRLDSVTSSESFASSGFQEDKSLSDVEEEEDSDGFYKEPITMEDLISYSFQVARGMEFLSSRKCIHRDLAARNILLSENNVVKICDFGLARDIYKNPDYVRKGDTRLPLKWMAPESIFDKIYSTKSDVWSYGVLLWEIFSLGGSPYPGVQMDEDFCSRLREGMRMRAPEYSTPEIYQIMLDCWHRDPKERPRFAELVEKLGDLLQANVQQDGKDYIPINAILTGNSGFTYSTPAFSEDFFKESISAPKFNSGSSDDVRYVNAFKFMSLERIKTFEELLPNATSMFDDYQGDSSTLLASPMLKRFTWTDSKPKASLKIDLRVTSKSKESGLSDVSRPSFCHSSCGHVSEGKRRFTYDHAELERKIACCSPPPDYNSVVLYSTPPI
T2 sequence (Q9QWJ9 with tags, fused parts or gaps limits assumed): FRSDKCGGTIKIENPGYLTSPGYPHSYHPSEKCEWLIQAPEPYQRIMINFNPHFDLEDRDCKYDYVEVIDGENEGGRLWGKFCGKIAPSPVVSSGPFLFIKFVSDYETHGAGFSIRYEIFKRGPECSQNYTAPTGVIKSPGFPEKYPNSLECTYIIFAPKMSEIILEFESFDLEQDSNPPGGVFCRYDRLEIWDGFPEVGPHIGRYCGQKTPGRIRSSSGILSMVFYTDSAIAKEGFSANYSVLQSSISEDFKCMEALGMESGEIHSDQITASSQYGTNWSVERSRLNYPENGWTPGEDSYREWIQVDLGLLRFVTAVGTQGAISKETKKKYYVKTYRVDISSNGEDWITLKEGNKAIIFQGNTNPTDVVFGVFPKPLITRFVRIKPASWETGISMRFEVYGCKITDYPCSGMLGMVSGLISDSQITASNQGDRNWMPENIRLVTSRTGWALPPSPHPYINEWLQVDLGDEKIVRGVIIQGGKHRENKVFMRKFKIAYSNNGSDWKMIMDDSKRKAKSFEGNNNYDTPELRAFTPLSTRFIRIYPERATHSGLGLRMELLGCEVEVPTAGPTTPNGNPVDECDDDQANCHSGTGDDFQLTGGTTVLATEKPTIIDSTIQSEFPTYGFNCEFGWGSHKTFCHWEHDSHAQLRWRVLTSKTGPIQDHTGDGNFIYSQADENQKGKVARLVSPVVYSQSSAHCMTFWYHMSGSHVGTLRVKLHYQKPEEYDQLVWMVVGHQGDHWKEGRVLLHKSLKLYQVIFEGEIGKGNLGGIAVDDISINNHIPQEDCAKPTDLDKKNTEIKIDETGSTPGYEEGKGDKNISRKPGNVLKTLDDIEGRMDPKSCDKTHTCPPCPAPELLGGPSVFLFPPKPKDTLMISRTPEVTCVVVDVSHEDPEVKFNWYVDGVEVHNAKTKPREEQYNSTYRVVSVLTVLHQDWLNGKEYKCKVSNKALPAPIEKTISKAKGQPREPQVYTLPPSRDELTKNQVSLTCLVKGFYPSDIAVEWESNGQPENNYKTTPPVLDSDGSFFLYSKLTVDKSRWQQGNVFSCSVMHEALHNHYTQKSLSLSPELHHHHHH
T4 sequence (P17948 27-758 limits assumed): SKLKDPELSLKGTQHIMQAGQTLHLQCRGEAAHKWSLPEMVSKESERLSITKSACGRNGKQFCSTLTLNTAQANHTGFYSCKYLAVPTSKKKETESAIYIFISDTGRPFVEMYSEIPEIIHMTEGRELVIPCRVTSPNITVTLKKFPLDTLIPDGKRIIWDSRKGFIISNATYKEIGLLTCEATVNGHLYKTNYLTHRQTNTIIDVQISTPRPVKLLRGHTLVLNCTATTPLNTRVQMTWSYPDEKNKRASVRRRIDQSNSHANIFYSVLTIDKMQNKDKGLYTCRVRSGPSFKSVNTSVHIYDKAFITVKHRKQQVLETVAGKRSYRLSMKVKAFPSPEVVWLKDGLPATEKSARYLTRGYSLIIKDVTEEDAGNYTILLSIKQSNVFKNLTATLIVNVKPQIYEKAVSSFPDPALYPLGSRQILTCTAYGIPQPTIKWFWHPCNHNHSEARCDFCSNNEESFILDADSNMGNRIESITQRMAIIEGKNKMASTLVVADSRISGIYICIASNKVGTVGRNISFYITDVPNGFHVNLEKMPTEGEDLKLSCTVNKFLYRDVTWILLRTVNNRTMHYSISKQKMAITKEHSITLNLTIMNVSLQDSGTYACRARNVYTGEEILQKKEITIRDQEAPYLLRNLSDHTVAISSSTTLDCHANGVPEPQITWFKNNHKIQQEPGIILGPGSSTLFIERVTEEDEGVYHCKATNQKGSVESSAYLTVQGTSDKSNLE

For VHALES [VHALES peptide], the “effect of peptide on VHALES phage binding to RT4 tumor cells” value (shortened to “effect of peptide”) (RT4 tumor cells) was “reduced” and the “effect of peptide” value (RT4 tumor cells; listed as VHALE) was “inhibited”.

In the case of “PDGF-BB: PDGF-BB obtained commercially (R&D Systems) [reference compound]”, the “blocking of clone 19 phage binding to VEGF-R1 by competitor” value (human VEGFR-1) is reported as “not” and the “blocking of clone 19 phage binding to NRP-1 by competitor” value (rat NRP-1) is reported as “not”.

For CPQPRPLC, the “efficiency in blocking phage binding to VEGF-R1 relative to NRP-1” value (human VEGFR-1; clone 19 phage, VEGF-R1 versus NRP-1) was “approximately 100 fold”, the “blocking of clone 19 phage binding to VEGF-R1 by competitor” value (human VEGFR-1) was “blocked” and the “blocking of clone 19 phage binding to NRP-1 by competitor” value (rat NRP-1) was “blocked”.

For CDCRGDCFC [RGD-4C peptide], the “effect of soluble peptide on RGD-4C phage binding to KS1767 cells” value (“effect of soluble peptide” for short) (KS1767 cells) was “completely inhibited” and the “inhibition of RGD-4C phage binding to KS1767 cells” value (KS1767 cells; synthetic peptide in solution) was 99.99%.

In the case of GRGESP, the “effect of soluble peptide” value (KS1767 cells) is reported as “no effect”.

`O=c1[nH]cc(F)c(=O)[nH]1` [CARAC, reference compound] was tested, and the “effect of soluble peptide” value (KS1767 cells) was “no effect” and the “effect of peptide” value (RT4 tumor cells) was “unchanged and not”.

With CRIRMSAGC the “change of phage binding after GAG-removal” value (porcine bladder mucosa) was “unchanged”.

In the case of RGD-4C phage (peptide), the enrichment in relation to Fd phage [1] is reported as 500 to 1000 fold and the ratio of RGD4C to Fd phage recovered (enrichment) [1] is reported as 100 to 500 fold.

B1: synthetic cognate peptide CPQPRPLC (SEQ ID NO:6) (peptide)
peptide: CPQPRPLC
modifications: disulfide 1-8 (inferred)
With B1 the binding result (recombinant rat NRP-1/Fc) was “binds” and the “fold efficiency in blocking phage binding, VEGF-R1 against NRP-1” value [2] was ~100 fold.

B2: synthetic RGD-4C peptide, containing the targeting sequence … (SEQ ID NO:9) (peptide)
peptide: CDCRGDCFC
modifications: disulfide (positions not given here); not fully specified; also: cyclized, bonds not given here
With B2 the percent inhibition of RGD-4C phage binding [3] was 100%.
